25 sequences from a protein production outcome set (Wang et al. 2014) can be followed below.
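Further: failed if final PepcDB status was selected cloned or expressed and not failed if soluble or beyond.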

This data set is described as follows: label from the status in PepcDB records.
Take “IKMAKDYGFCFGVKRAIQIAEKNQNSLIFGSLIHNAKEINRLEKNFNVKIEEDPKKIPKNKSVIIRTHGIPKQDLEYLKNKGVKITDATCPYVIKPQQIVESMSKEGYQIVLFGDINHPEVKGVISYATNQALVVNSLEELQEKKLQRKVALVSQTTKQTPKLLQIASYLVERCTEVRIFNTICNATSYNQKAALDLSKEVDIMIVVGGKTSSNTKQLLSIAKQHCKDSYLVEDENELELAWFKDKKLCGITAGASTPDWIIENVKQKISTI”: the protein production entry is reported as “failed”.

For “MPVDLQALYPRLIHLMLDTVFVVDRDNQIVFVSDACKTLLGYEACELIGTPITRYMHPDDLAATRASIMRVMNGQPHYDFCNRYLRKDGSVVHILWAACWSEEAQARIGVARDVTAQRKAEDELRFLAHHDPLTRLANRAMFNERLDTALAAARRHNRRLALLFLDINDFKQINDNHGHSVGDRVLCTLARRLERCVGAAGTVARMGGDEFTVLLPDCPSPEAIATHVQHILAVMAEPLDAEFAGIDAPSCSIGVARFPEDGNDADMLLRHADGHMYRIKRQRAATG”, the protein production result is given as “failed”.

“MNDIILKSLSTLITEQRNPNSVDIDRQSTLEIVRLMNEEDKLVPLAIESCLPQISLAVEQIVQAFQQGGRLIYIGAGTSGRLGVLDASECPPTFGVSTEMVKGIIAGGECAIRHPVEGAEDNTKAVLNDLQSIHFSKNDVLVGIAASGRTPYVIAGLQYAKSLGALTISIASNPKSEMAEIADIAIETIVGPEILTGSSRLKSGTAQKMVLNMLTTASMILLGKCYENLMVDVQASNEKLKARAVRIVMQATDCNKTLAEQTLLEADQNAKLAIMMILSTLSKSEAKVLLERHQGKLRNALSK”: the protein production entry was “not failed”.

For the sequence “MDIAELINHPELLLLVLAPLFFVCILLEWYLGDRRQKLPVSARYHAKEVLCNFSLAAMHQGTDILAGLLIAKLYLAIFGWKLFDIQMGPFTFVLLMVAQDFCYYWFHRASHRIRWMWAAHVVHHSSENMNFSTAFRQSLMYPFAGMWVFWLPLVILGFDPNWVVFVVLLSLGLQFFVHTQAVRKLGPLEWLFNTPSHHRVHHGRNPQYIDKNYAGILIIWDKLFGTFVPEEETVIYGITKPVNSFNPLKVTFSEWHDMFREVTTKGLSLSKRLGILFAPPASYQKDD”, the protein production entry was “failed”.

For “MQREKTQTNLRLDEGGGSVWQKCSRHEGRFVCVAGVCPYCLHERLSSLCPDCAHDLPCSCTPRASVSSRGEGDVSFARIGSVGRVANLIECEPAFRRSTSITGPYFWSAKPEPILETEKDLKPGRGRWLWRLFRGNREEETKIKAAKVMKKSNSVAGEVLFSPTPVTSKGNGWYFPSPIKVFRQSRVSKMIFQQRSPLYRG”, the protein production result was “failed”.

On to “MISVGKGKIMITPDHNIIKPIAIVLPQFHPIRENNLWWGEGFTEWTNVVKGRPRFRGHYQPHLPKDLGYYDLRLPETRKAQAALATKYGIYGFCYYHYWFNGRRILESPVDAMLESGEPDFPFMLCWANENWTRNWDGSYNKVLLEQKYSKEDFVNHARHLIRYFKDDRYIKIDGRPVFAIYKDDIGEDIEKYLLLFRNELLKNSINVFLCRFERNIGTSRDLNRAFQVFDAGIEFQPLARQFSYLINYNNRLSRRIYKTLKKHFCFCKNIDDVYVYSHLVDNDLKYDFQQGWPIFPGVCPGWDNSARRRDTTAIIFDKSTPEIFKLWVREKIRITDWNLLPERFLFVNAWNEWAEGNHLEPCEKWGTQYLAALQAGINEM”, for which the protein production result is “failed”.

For “MLLHLSDLHFGTEKPECLTAIEDFCRQHRPEVIVVSGDLTQRARFIQFYNCKQFLESLNVPYLVVPGNHDIPLYHLWNRFFSPFVRYQFFFGELEPTLETEHFFIVGVNSIRRRYHTRGYISLEQIQKTNEILKQAPSHKLKLVVLHQPFYTPPDQPHGIKDCPVLGRMALDNWSKSGLFGVLHGHLHKTAVYDLTQIYQLRVDESVYDIHAGTATSYRLYKNLPNSFNVILNDGRVEHYWFDPASKAFVLKTDLYEK”, the protein production entry is recorded as “failed”.

Consider “ALRERSEGLVLIGRRHLRSNNSWLHNVPALTGGTNRCTLHIHPEDAERLGLTDGAPVRVRGAGGAVTAPVEVTDGIRRGVVSLPHGWGHDRPGTRMSHAALDPGVNVNQLLDGSLLDPLSGNAVLNGVPVELTRT”, for which the protein production result was “failed”.

For “MILMMENRMPKGIQKTETSEKNIEKVLNAYDKQQHHHQDDLAIQYLPAVRAMAFRLKERLPSSIDFNDLVSIGTEELIKLARRYESALNDSFWGYAKTRVNGAMLDYLRSLDVISRSSRKLIKSIDIEITKHLNEHGKEPSDAYLAQTLGENIEKIKEAKTASDIYALVPIDEQFNAIEQDEITKKIEAEELLEHVQKALNQMSEREQILIQLYYFEELNLSEIKEILGITESRISQIIKEVIKKVRKSLGVDHG”, the protein production entry is given as “failed”.

For “MALYWNLRLSVKNWRSIQNNEKLIFQVLWPLKLLVALKFISTLEERLIIPESDKPHTPPEGRLPDATKGFDLLRDVFAKRMGLSDKDIVALSGSHTPISPSQS”, the protein production entry is recorded as “failed”.

Regarding “GRGTVTNEVRVAVEVPALPAAIASRLEVPAGAGGVYVERLRRLDGLPLSLDTSYLTVDVGRAVLAGDLRDRDVFGLIEEAAGARLGRAEVAVHAVNADPGTARLLGIGPGAAVFALERLTRLADGRPVDAESIRIRADRMA”, the protein production result is given as “failed”.

For “MDTVDLRHLDENLHHARTQFEVWARGRLSNLEEVQRTWQETTARVSRETETLVQRRTQFEAAAARLQERLEAEREELDALERGIAQLEARAAALPVRQQELEQEIAERRQEFERRRALLNACEEARRTRLLHLQKALVWYRDRLGLRFQRVGAASATEAGRVDGKVRVIFRHIDSRAPDREFAFTVYVDEDADLFRVEDCVPDIDVMKPTAGAANVRLAQMVETLNRTNDFGAFVAQMRRRFKAWVQMESTDQLAGRQA”, the protein production result is “failed”.

“MRITASLRTFCHLSTPHSDSTTSRLWIDEVTAVARQRDRDSFMRIYDHFAPRLLRYLTGLNVPEGQAEELVQEVLLKLWHKAESFDPSKASLGTWLFRIARNLYIDSVRKDRGWVQVQNSLEQLERLEAPVDRTLDYSQRQEQQLNSAIQNLPTDQAKVLRMSYFEALSHREISERLDMPLGTVKSCLRLAFQKLRSRIEES”: the protein production entry was “failed”.

“MERRTILVTGASGFVGGALCRQLATLGSFAIRAASRDLGGASVAGIQAVTVADLSATTDWARALSGVDLVVHAAARVHVMKETASDSLAEFRRVNVDGTLNLARQAAAAGVRRFIFISSIKVNGESSQPGQPLRADDSPAPQDAYGVSKHEAEQGLRQLAAATGMEVVVIRPVLVYGPGVKANFHSMMRWLQRGVPLPFGAVCNRRSLVSLANLVDLVVTCIDHPRAANQTFLASDGDDVSLTQLLRALGLALGRPARLLPVPAGLLRGAVLLIGRRDLAQRLFGTLQVDIEKNRQLLGWYPPCTLEQGLNMTARSFLGARRP”: the protein production result is listed as “failed”.

Turning to “MGHHHHHHSHMTNTVDSLFDTGLERYKAGEPAADLIPVFKEVCDRAPKASAAWICLAWLYLLEDKPNLALKAAQKAVKINPQDPQARVNLAVAMLETGQKGLRQHIDITQQLMLVNPDWRDEIQNSIADGLSRKPDWQSLAKVKGWLFNE”, the protein production result is “not failed”.

As for “MKKFYFLILGIVLCGMVAQAQNSYEGHIGFGQHHVVRKGGELNVEVSLDLGAVKLAAQQMIVLTPVLRSTEGEEQQQLAPVVIAGPRRYRVLKRSLAFGTDNFEMSPMLVEKRKSGTPQTVNLHFGLPYHEWMRRAELILREEVTGCADCPVSQGDHTVITSVFDEQFTPRYELSYVTPPVEPLKQRSETHTAYLNFEVDKYVLLRNYKNNANVLADVDRIVNEIQNDSNLTVTEFRVTGYASPEGNYSRNMKLSENRALAFVGYLQNHGGVDESLLTVDWKGEDWSGLRREVAASSLIDKGAILAVIDGHTDFATRKNRLQALNGGTTYRMLLRDYYPPLRRNEYTISYVARAFNVDEAKQLIKTKPQYLSLNEMFLVANTYPKDSGEFKEVFDIAARIYPDDPVARLNTAALELENGAIDAAIVRLQKSDMPEAWNNLGIAYILKQDYKKGGEYLEKAIDAGIQAAAYNMGQLAAWLKTQE”, the protein production result is given as “failed”.

On to “MIPLSESFESGIPAIWKTIDADGDGYNWMHLTNFTGQSGLCVSSASYIGGVGALTPDNYLITPELKLPTDALVEIIYWVCTQDLTAPSEHYAVYSSSTGNNAADFVNLLYEETLTAKRIQSPELIRGNRTQGVWYQRKVVLPNDTKYVAFRHFNSTDNFWLNLDEVSI”, for which the protein production result is recorded as “failed”.

For the sequence “SPLGQIQLTIRHSSQRNKLIVVVHACRNLIAFSEDGSDPYVRMYLLPDKRRSGRRKTHVSKKTLNPVFDQSFDFSVSLPEVQRRTLDVAVKNSGGFLSKDKGLLGKVLVALASEELAKGWTQWYDLTED”, the protein production result is “not failed”.

Regarding “ARRASAGELDAAVMHELAPLKMERAVFQTRITEGEPGPEGRDAVAFEVATNPGAPAGPLNRIASGGELSRFLLALKVCLRGDDGGKTMIFDEIDRGVGGATADAVGRRLEALAGAGQVLVVTHSPQVAARGVHHWRV”, the protein production entry was “failed”.

On to “MFAPQGLAQFIKVNVTLENGEPVFIYTDANGQVCQGDITVTQAGTITYLLNDQTLKGLKFVGVGFVTPFDGIIDAVTISSDGMLVQLVDLDKTPGTTKFQFVLSNTANTLLVLSPDPQIINRPQN”, for which the protein production entry was “not failed”.

As for “MSDTLRPYKNLFPGIGQRVMIDTSSVVIGDVRLADDVGIWPLVVIRGDVNYVAIGARTNIQDGSVLHVTHKSSSNPHGNPLIIGEDVTVGHKVMLHGCTIGNRVLVGMGSIVLDGAIIEDDVMIGAGSLVPQHKRLESGYLYLGSPVKQIRPLSDAERSGLQYSANNYVKWKDDYLSQDNHIQP”, the protein production entry is “not failed”.

In the case of “MSSNAQVRPPLPPFTRESAIEKIRLAEDGWNSRDPERVSLAYTLDTQWRNRAEFAHNREEAKAFLTRKWAKELDYRLIKELWAFTDNRIAVRYAYEWHDDSGNWFRSYGNENWEFDEQGLMARRFACINDMPIKAQERKFHWPLGRRPDDHPGLSELGLLEHHHHHH”, the protein production entry is given as “not failed”.

For “MNLCGDSEILKEDDNTKNFARKNPDPYPPTGTSLVYLDHLELCLCSTEWWNLLTCILDDAPKLRVLKLKLYRKHCVEYNESMEPWKQPDYVPICLSSYLEIFEWRQYNGEEQEREVAKYILENASRLKKAIFYLESAEKHGILKELECMARGSKKCQLVFD”, the protein production result is recorded as “failed”.

In the case of “MSLIIQVSPAGSMDLLSQLEVERLKKTASSDLYQLYRNCSLAVLNSGSHTDNSKELLDKYKNFDITVMRRERGIKLELANPPEHAFVDGQIIKGIQEHLFSVLRDIVYVNMHLADSQRLNLTNATHITNLVFGILRNAGALIPGATPNLVVCWGGHSINEVEYQYTREVGHELGLRELNICTGCGPGAMEGPMKGAAVGHAKQRYSEYRYLGLTEPSIIAAEPPNPIVNELVIMPDIEKRLEAFVRMAHGIIIFPGGPGTAEELLYILGIMMHPENADQPMPIVLTGPKQSEAYFRSLDKFITDTLGEAARKHYSIAIDNPAEAARIMSNAMPLVRQHRKDKEDAYSFNWSLKIEPEFQLPFEPNHESMANLDLHLNQRPEVLAANLRRAFSGVVAGNVKAEGIREIERHGPFEMHGDPVLMKKMDQLLNDFVAQNRMKLPGGSAYEPCYKIVTEGHHHHHH”, the protein production entry is “not failed”.

Consider “MRVALTIAGSDSGGGAGVQADLKVFFRFGVYGTSALTLVTAQNTLGVQRVHLLPPEVVYAQIESVAQDFPLHAAKTGALGDAAIVEAVAEAVRRFGVRPLVVDPVMVAKSGDPLLAKEAAAALKERLFPLADLVTPNRLEAEALLGRPIRTLKEAEEAAKALLALGPKAVLLKGGHLEGEEAVDLLATRGGVLRFSAPRVHTRNTHGTGCTLSAAIAALLAKGRPLAEAVAEAKAYLTRALKTAPSLGHGHGPLDHWA”, for which the protein production entry is listed as “not failed”.
